Patent US20090093061

Test system: GroEL having Aspartate 490 substituted with Cysteine, biotinylated and conjugated onto NeutrAvidin beads

With mitochondrial malate dehydrogenase the “refolding of denatured mMDH (conversion of NADH to NAD+ in the presence of oxaloacetate, OD at 340 nm)” value was “positive GroEL-490 activity was confirmed by a reduction in OD at 340 nm with respect to the control”.
